Assay [1] has as its target P95/nucleolin (human) (UniProt P19338). The assay can be described thus: competition: 50 µM unlabeled 5[KPR]-TASP against 5 µM biotin-labeled 5[Kψ(CH2N)PR]-TASP on CEM cells.
The target is the same in assay [2]. The experiment in a line: FACS on CEM cells with biotin-labeled construct; target printed as TASP-ligand.
Assay [3] deals with purified preparation of the V3 loop-BPs (P95/nucleolin, P40/PHAP II, P30/PHAP I) (human) (UniProt P19338). The assay can be described thus: BIAcore, V3 loop-BPs immobilized on CM5. (SPR reads the build-up and loss of mass on a sensor chip optically.)
Assay [4] concerns the target P95/nucleolin (human) (UniProt P19338). The assay can be described thus: cell-based or functional assay.
Assay [5] has as its target purified preparation of the V3 loop-BPs (P95/nucleolin, P40/PHAP II, P30/PHAP I) (human) (UniProt P19338). The experiment in a line: BIAcore, V3-BPs; row shifted one column to the left.
Assay [6] has the same target. The experiment in a line: inhibition of gp120 binding to the V3 loop-BPs; competitor gp120.
For assay [7], the target named is P95/nucleolin (human) (UniProt P19338). The experiment in a line: saturation of the binding sites, method not stated.
For assay [8], the target named is P30/PHAP I (human) (UniProt P39687). The assay can be described thus: saturation of the binding sites, method not stated.
The target of assay [9] is P40/PHAP II (human) (UniProt Q01105). The assay can be described thus: saturation of the binding sites, method not stated.
In assay [10] the target is P95/nucleolin (human) (UniProt P19338). The assay can be described thus: FACS on MOLT4 cells after pronase E; target TASP-Ligand [sic].
The target is the same in assay [11]. The assay can be described thus: FACS on MOLT4 cells, no protease; target TASP-Ligand [sic].
Assay [12] has the same target. The experiment in a line: FACS on MOLT4 cells after proteinase K; target TASP-Ligand [sic].
Assay [13] shares this target. The assay can be described thus: FACS on MOLT4 cells after trypsin; target TASP-Ligand [sic].
Assay [14] addresses purified preparation of the V3 loop-BPs (P95/nucleolin, P40/PHAP II, P30/PHAP I) (human) (UniProt P19338). The experiment in a line: BIAcore, V3-BPs.
Assay [15] shares this target.
Assay [16] concerns the target CD4 (cellular, CEM and MOLT4 cells) (human) (UniProt P01730). The assay can be described thus: FACS on MOLT4 cells after trypsin.
Assay [17] has the same target. The assay can be described thus: cell-based or functional assay.
Assay [18] shares this target. The assay can be described thus: FACS on MOLT4 cells, no protease.
Assay [19] shares this target. The experiment in a line: FACS on MOLT4 cells after pronase E.
Assay [20] has the same target. The assay can be described thus: FACS on MOLT4 cells after proteinase K.
For assay [21], the target named is CD26 (on MOLT4 cells) (human) (UniProt P27487). The assay can be described thus: FACS on MOLT4 cells after trypsin.
Assay [22] shares this target. The experiment in a line: FACS on MOLT4 cells, no protease.
Assay [23] has the same target. The experiment in a line: FACS on MOLT4 cells after pronase E.
Assay [24] shares this target. The experiment in a line: FACS on MOLT4 cells after proteinase K.
Assay [25] addresses purified preparation of the V3 loop-BPs (P95/nucleolin, P40/PHAP II, P30/PHAP I) (human) (UniProt P19338). The assay can be described thus: BIAcore, V3 loop-BPs.
In assay [26] the target is recombinant gp120 of HIV-1 Lai (IIIB) (HIV-1 Lai (IIIB)) (UniProt P03377). The experiment in a line: cell-based or functional assay.
For assay [27], the target named is purified preparation of the V3 loop-BPs (P95/nucleolin, P40/PHAP II, P30/PHAP I) (human) (UniProt P19338). The source holds these as a separate data set.
The target of assay [28] is recombinant soluble CD4 (UniProt P01730). The experiment in a line: BIAcore, soluble CD4; row shifted one column to the left.
The target of assay [29] is purified preparation of the V3 loop-BPs (P95/nucleolin, P40/PHAP II, P30/PHAP I) (human) (UniProt P19338). The assay can be described thus: BIAcore, purified V3-BPs.

Where two headings read alike, the source gives them in different places.

As a reminder, the EC50 is the concentration needed to bring the measured effect to its halfway point. In general, koff refers to the first-order rate constant of dissociation. The term kon denotes the rate constant with which the complex forms. A word on the IC50: it is the concentration at which inhibition is half-maximal. A high value points to a need for much substance.

Chain of P95/nucleolin (human) (P19338 2-710 limits assumed): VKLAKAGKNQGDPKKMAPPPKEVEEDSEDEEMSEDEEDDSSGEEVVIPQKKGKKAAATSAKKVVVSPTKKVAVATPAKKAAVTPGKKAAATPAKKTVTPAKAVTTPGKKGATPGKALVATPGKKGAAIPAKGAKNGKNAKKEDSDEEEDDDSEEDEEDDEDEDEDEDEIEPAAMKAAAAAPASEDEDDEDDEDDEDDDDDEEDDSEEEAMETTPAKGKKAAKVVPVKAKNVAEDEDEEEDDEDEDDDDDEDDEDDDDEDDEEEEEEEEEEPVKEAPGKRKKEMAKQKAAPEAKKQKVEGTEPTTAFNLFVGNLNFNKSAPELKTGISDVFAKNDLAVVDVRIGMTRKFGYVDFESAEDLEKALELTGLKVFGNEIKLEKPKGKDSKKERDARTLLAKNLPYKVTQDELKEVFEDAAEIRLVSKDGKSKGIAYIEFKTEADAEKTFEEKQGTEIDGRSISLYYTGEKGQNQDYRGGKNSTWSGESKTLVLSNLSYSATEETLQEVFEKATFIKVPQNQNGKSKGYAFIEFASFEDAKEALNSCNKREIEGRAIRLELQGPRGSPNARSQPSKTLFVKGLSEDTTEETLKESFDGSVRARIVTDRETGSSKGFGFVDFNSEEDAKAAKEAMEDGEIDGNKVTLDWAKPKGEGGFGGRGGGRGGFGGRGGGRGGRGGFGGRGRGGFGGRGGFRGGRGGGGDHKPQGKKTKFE
Chain of P40/PHAP II (human) (Q01105 other isoform, or with tags, fused parts or gaps limits assumed): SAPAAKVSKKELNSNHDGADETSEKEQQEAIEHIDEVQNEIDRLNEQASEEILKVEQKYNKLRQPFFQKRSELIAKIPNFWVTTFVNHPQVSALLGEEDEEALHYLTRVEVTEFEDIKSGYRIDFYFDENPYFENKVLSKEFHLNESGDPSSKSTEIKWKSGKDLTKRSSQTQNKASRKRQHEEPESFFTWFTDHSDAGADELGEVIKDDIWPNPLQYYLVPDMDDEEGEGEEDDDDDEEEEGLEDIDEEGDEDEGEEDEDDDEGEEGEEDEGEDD

In turn, 5[KPR]-TASP (peptide) came in with a % of P95 recovery abolished in assay [1] of 40 to 50%. The substance further had a 50% effective concentration (EC50) in assay [2] of 3500 nM. Also, in [3], the Ka stood at 1.5e+08 M⁻¹, the koff came to 0.0024 s⁻¹ and the kon worked out at 350000 M⁻¹ s⁻¹. For the same substance, the Inhibition of HIV infection (IC50), HIV-1 in CEM cells, p24 at 4 days in [4] was found to be 5000 nM. Also, in assay [5], the Ka is 1.5e+08 M⁻¹, the off-rate (koff) came out at 0.0024 s⁻¹ and the on-rate constant (kon) was 350000 M⁻¹ s⁻¹. This substance gave an IC50 in assay [6] of 300 nM.
Regarding 5[Kψ(CH2N)PR]-TASP (peptide), the concentration giving 100% saturation of the binding sites worked out at 2 µM in assay [7], 8 µM in assay [8] and 4 µM in assay [9]. The substance also registered an EC50 in assay [2] of 150 nM. Further, the % positive cells in [10] was 8%; in assay [11] it was 100%; in [12] it was 15%; in assay [13], 92%. Besides, the Ka in assay [3] and in [14] was 9.61e+09 M⁻¹ in each case. Further, in assay [4], the IC50 of HIV entry (β-galactosidase), HeLa P4, HIV-1 Lai came out at 500 nM. Moreover, in [4], the IC50 of HIV entry (β-galactosidase), HeLa P4-C5, HIV-1 Bal was found to be 800 nM. The substance also returned an IC50 of HIV entry (β-galactosidase), HeLa P4-C5, HIV-1 UGO29A in [4] of 300 nM. This substance also yielded an IC50 of HIV entry (β-galactosidase), HeLa P4-C5, HIV-2 ROD in assay [4] of 400 nM. The substance further had an Inhibition of HIV infection (IC50), HIV-1 in CEM cells, p24 at 4 days in assay [4] of 500 nM.
“5[Kψ(CH2N)PR]-TASP with dehydroxyproline in place of proline (peptide)”: in assay [4], the IC50 of HIV entry (β-galactosidase), HeLa P4, HIV-1 Lai was 100 nM; the IC50 of HIV entry (β-galactosidase), HeLa P4-C5, HIV-1 89.6 came out at 300 nM; the IC50 of HIV entry (β-galactosidase), HeLa P4-C5, HIV-1 Bal amounted to 300 nM; the IC50 of HIV entry (β-galactosidase), HeLa P4-C5, HIV-1 JRCSF was found to be 300 nM. Moreover, in assay [4], the IC50 of HIV entry (β-galactosidase), HeLa P4-C5, HIV-1 Lai is 100 nM; the IC50 of HIV entry (β-galactosidase), HeLa P4-C5, HIV-2 CBL amounted to 2000 nM; the IC50 of HIV entry (β-galactosidase), HeLa P4-C5, HIV-2 ROD worked out at 200 nM.
The substance mAb OKT4A (antibody) returned an ELISA OD 450 nm in assay [15] of 0.2 OD 450 nm. The % positive cells in assay [16] came to 24%; in assay [18], 100%; in [19] it was 9%; in [20] it was 6%. In addition, the inhibition of binding of HIV-1 particles to CEM cells (p24 in cell lysates) in assay [17] came out at 75%.
Turning to mAb Ta1 (antibody), the % positive cells is 100% in [21], 100% in [22], 97% in assay [23] and 98% in assay [24].
With “nonglycosylated gp120 of HIV-1 SF2 (Env 2-3) (from UniProt P03378 32-509) (ligand)”, in [3], the Ka amounted to 1.6e+08 M⁻¹, the koff worked out at 0.0024 s⁻¹ and the on-rate (kon) amounted to 380000 M⁻¹ s⁻¹. Besides, in assay [5], the Ka amounted to 1.6e+08 M⁻¹, the koff amounted to 0.0024 s⁻¹ and the on-rate (kon) worked out at 380000 M⁻¹ s⁻¹. This substance also yielded a fold reduction of affinity against glycosylated gp120 SF2 in assay [25] of 10 fold.
As to “purified preparation of the V3 loop-BPs (P95/nucleolin, P40/PHAP II, P30/PHAP I) (from UniProt P19338 2-710; Q01105 2-277; P39687 1-249)”, in assay [26], the inhibition of HIV-1 Lai infection of CEM cells, multiple cycles, p24 at 5 days, 10 µg/ml is 91% and the inhibition of single cycle HIV-1 infection of CEM cells is over 80%.
Take “recombinant gp120 of HIV-1 Lai (IIIB) (from UniProt P03377 33-516) (ligand)”: in assay [3], the Ka worked out at 2.1e+08 M⁻¹, the koff is 0.0021 s⁻¹ and the kon came out at 440000 M⁻¹ s⁻¹. In addition, the half-inhibitory concentration (IC50) in assay [27] was found to be 3 nM. In addition, in assay [5], the Ka stood at 2.1e+08 M⁻¹, the koff is 0.0021 s⁻¹ and the kon worked out at 440000 M⁻¹ s⁻¹.
Turning to “recombinant gp120 of HIV-1 Lai (IIIB) (from UniProt P03377 33-516) (ligand; other documents disagree on this pair)”, in assay [28], the Ka is 1.08e+09 M⁻¹, the koff was 0.0545 s⁻¹ and the kon stood at 588000 M⁻¹ s⁻¹.
Consider “recombinant gp120 of HIV-1 MN (from UniProt P05877 32-513) (ligand)”, for which, in [3], the Ka turned out to be 4.3e+08 M⁻¹, the koff was 0.00044 s⁻¹ and the kon came out at 190000 M⁻¹ s⁻¹. Also, in assay [5], the Ka amounted to 4.3e+08 M⁻¹, the koff was 0.00044 s⁻¹ and the on-rate constant (kon) worked out at 190000 M⁻¹ s⁻¹.
For “recombinant gp120 of HIV-1 SF2 (from UniProt P03378 32-509) (ligand)”, in [3], the Ka stood at 2.32e+09 M⁻¹, the koff is 2.8e-05 s⁻¹ and the on-rate constant (kon) was 65000 M⁻¹ s⁻¹. Further, in assay [5], the Ka worked out at 2.32e+09 M⁻¹, the koff came out at 3e-05 s⁻¹ and the on-rate (kon) was 65000 M⁻¹ s⁻¹.
In assay [29], synthetic V3 loop peptide of HIV-1 Ba-L returned a Ka of 1.5e+06 M⁻¹.
Regarding synthetic V3 loop peptide of HIV-1 Lai, in assay [29], the Ka was 5.1e+06 M⁻¹ and the fold affinity against the V3 loop of the macrophage-tropic isolate was over 3 fold.
